This passage reports activity (% germline reversion) and activity (% chromosomes with catastrophic excision) results from patent US7196244.

Data set [1] concerns TC3A transposase (Caenorhabditis elegans). The experiment in a line: cell_activity. The conditions noted are these: ced-9 promoter; 0.1% with glh-2 promoter.
Data set [2] has as its target T1, Mos1 transposase (Drosophila mauritiana) (UniProt Q7JQ07).
T1 sequence: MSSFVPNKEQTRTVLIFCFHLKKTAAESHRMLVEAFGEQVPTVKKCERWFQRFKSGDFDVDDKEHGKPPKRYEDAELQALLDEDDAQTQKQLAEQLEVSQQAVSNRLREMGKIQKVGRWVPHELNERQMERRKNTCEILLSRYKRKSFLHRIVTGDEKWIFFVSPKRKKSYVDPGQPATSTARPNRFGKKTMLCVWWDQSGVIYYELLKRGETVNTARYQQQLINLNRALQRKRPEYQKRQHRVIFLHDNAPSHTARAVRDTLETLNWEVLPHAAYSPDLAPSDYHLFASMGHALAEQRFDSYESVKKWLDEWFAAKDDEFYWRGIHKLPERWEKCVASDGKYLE
The experiment in a line: cell_activity. The conditions noted are these: glh-2 promoter, C. elegans germline.

Consider Tc3 element in unc-22(r750::Tc3), for which the activity (% germline reversion) in data set [1] was found to be 2.
“Mos1 transposon in integrated array oxIs25” displayed an activity (% chromosomes with catastrophic excision) in data set [2] of 20.9.
